# Experimental data published in PMC3547953.
# Biological target: tumor necrosis factor-alpha (TNF-α) (UniProt P01375)
# Chain of UniProt P01375 (P01375 77-233): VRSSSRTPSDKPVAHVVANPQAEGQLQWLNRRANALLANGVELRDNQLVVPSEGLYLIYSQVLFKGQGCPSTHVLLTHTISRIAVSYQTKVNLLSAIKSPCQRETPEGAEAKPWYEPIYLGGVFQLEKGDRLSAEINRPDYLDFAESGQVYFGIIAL
substance,measurement,value
"anti-TNF-α antibody (ENBREL), a chimeric molecule combining the ligand-binding domain of the TNF-receptor 2 and the Fc-domain of human IgG1 (Fc fusion)","apoptosis (TUNEL, DNA strand breaks) of uninfected monocytes induced by added TNF-α, with anti-TNF-α mAb (ENBREL, 1 µg/ml)",50%
